The record followed here is patent US10738094B2, “Peptides and combination of peptides for use in immunotherapy against ovarian cancer and other cancers” (immatics biotechnologies GmbH, priority 2015, dated 2020).

In this experiment the target is HLA-A*02:01 (Homo sapiens, UniProt P04439, D140Y/D185E/D98H/E176V/E277Q/G131W/G231S/I119V/I121R/I166T/I218V/L300P/L318F/N151K/N90K/P208A/P217A/Q86G/Q94H/R138H/R169H/T345S). In words: MHC binding assay (UV-ligand exchange, beta2m ELISA). The settings on record: binding to HLA-A*02:01 ranged by peptide exchange yield (UV-ligand exchange, β2m ELISA). Put shortly: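 Stabilised complexes were quantified via their β2m light chain: 100-fold-diluted monomers bound to streptavidin plates, then HRP anti-β2m at 2 ug/ml for 1 h at 37° C., TMB read at 450 nm. The value is the yield of UV-induced exchange of a photocleavable peptide for the candidate.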
Turning to “364 (LLQNEQFEL; listed as Homo sapiens) [compound 364]”, the Peptide exchange result was ““+++” (≥50 = +++)”.

“365 (YVIDQGETDVYV; listed as Homo sapiens) [compound 365]”: the Peptide exchange result is reported as ““+++” (≥50 = +++)”.

As for “366 (RLLDMGETDLML; listed as Homo sapiens) [compound 366]”, the Peptide exchange result is on record as ““+++” (≥50 = +++)”.

Turning to “367 (SLQNHNHQL; listed as Homo sapiens) [compound 367]”, the Peptide exchange result is reported as ““+++” (≥50 = +++)”.

With “369 (GLFPEHLIDV; listed as Homo sapiens) [compound 369]”, the Peptide exchange entry is listed as ““+++” (≥50 = +++)”.

Take “370 (SLLQDLVSV; listed as Homo sapiens) [compound 370]”: the Peptide exchange entry is listed as ““+++” (≥50 = +++)”.

Consider “371 (FLQAHLHTA; listed as Homo sapiens) [compound 371]”, for which the Peptide exchange entry was ““++++” (≥75% = ++++)”.

As to “372 (TMLLNIPLV; listed as Homo sapiens) [compound 372]”, the Peptide exchange entry is given as ““++” (≥20% = ++)”.

Consider “373 (SLLEDKGLAEV; listed as Homo sapiens) [compound 373]”, for which the Peptide exchange result is on record as ““++” (≥20% = ++)”.

Turning to “374 (FLLQQHLISA; listed as Homo sapiens) [compound 374]”, the Peptide exchange entry is on record as ““++” (≥20% = ++)”.

Consider “375 (SLTETIEGV; listed as Homo sapiens) [compound 375]”, for which the Peptide exchange result is given as ““++” (≥20% = ++)”.

As for “376 (AMFESSQNVLL; listed as Homo sapiens) [compound 376]”, the Peptide exchange result is recorded as ““++” (≥20% = ++)”.

For the substance “377 (FLLDSSASV; listed as Homo sapiens) [compound 377]”, the Peptide exchange entry is ““++” (≥20% = ++)”.

“378 (ALGYFVPYV; listed as Homo sapiens) [compound 378]”: the Peptide exchange entry is ““+++” (≥50 = +++)”.

Turning to “379 (IMEGTLTRV; listed as Homo sapiens) [compound 379]”, the Peptide exchange entry was ““++” (≥20% = ++)”.

As for “380 (TLIEDEIATI; listed as Homo sapiens) [compound 380]”, the Peptide exchange entry is listed as ““++” (≥20% = ++)”.

Consider “381 (FIDEAYVEV; listed as Homo sapiens) [compound 381]”, for which the Peptide exchange result is reported as ““++” (≥20% = ++)”.

For the substance “382 (ALQNYIKEA; listed as Homo sapiens) [compound 382]”, the Peptide exchange result is ““++” (≥20% = ++)”.

In the case of “383 (ALLELENSVTL; listed as Homo sapiens) [compound 383]”, the Peptide exchange result is listed as ““+++” (≥50 = +++)”.

Take “385 (SLLEQGLVEA; listed as Homo sapiens) [compound 385]”: the Peptide exchange result is given as ““++” (≥20% = ++)”.

Turning to “386 (ILFRYPLTI; listed as Homo sapiens) [compound 386]”, the Peptide exchange result is on record as ““+++” (≥50 = +++)”.

As to “387 (ALFQATAEV; listed as Homo sapiens) [compound 387]”, the Peptide exchange result was ““++++” (≥75% = ++++)”.

On to “388 (SLTIDGIRYV; listed as Homo sapiens) [compound 388]”, for which the Peptide exchange result was ““+++” (≥50 = +++)”.

“389 (LLADVTHLL; listed as Homo sapiens) [compound 389]”: the Peptide exchange entry is on record as ““++” (≥20% = ++)”.

On to “390 (ALFMKQIYL; listed as Homo sapiens) [compound 390]”, for which the Peptide exchange result is ““+++” (≥50 = +++)”.

On to “391 (YVYPQRLNFV; listed as Homo sapiens) [compound 391]”, for which the Peptide exchange entry was ““+++” (≥50 = +++)”.

With “392 (ALLHPQGFEV; listed as Homo sapiens) [compound 392]”, the Peptide exchange entry was ““++” (≥20% = ++)”.

For “393 (GLLDTQTSQVLTA; listed as Homo sapiens) [compound 393]”, the Peptide exchange entry is on record as ““++” (≥20% = ++)”.

In the case of “394 (LLAVIGGLVYL; listed as Homo sapiens) [compound 394]”, the Peptide exchange result is recorded as ““+++” (≥50 = +++)”.

Take “395 (ALALGGIAVV; listed as Homo sapiens) [compound 395]”: the Peptide exchange result is on record as ““++++” (≥75% = ++++)”.

For “396 (ALLPDLPAL; listed as Homo sapiens) [compound 396]”, the Peptide exchange entry is reported as ““+++” (≥50 = +++)”.

As to “397 (YLFGERLLEC; listed as Homo sapiens) [compound 397]”, the Peptide exchange result was ““+++” (≥50 = +++)”.

In the case of “398 (KLLEEDGTIITL; listed as Homo sapiens) [compound 398]”, the Peptide exchange entry is ““++” (≥20% = ++)”.

For the substance “399 (YLFEPLYHV; listed as Homo sapiens) [compound 399]”, the Peptide exchange entry is on record as ““+++” (≥50 = +++)”.

With “400 (SLLTEQDLWTV; listed as Homo sapiens) [compound 400]”, the Peptide exchange entry is on record as ““++” (≥20% = ++)”.

As to “401 (ILLDDTGLAYI; listed as Homo sapiens) [compound 401]”, the Peptide exchange entry is ““+++” (≥50 = +++)”.

On to “402 (VLFSGALLGL; listed as Homo sapiens) [compound 402]”, for which the Peptide exchange entry is on record as ““++” (≥20% = ++)”.

As to “403 (KLYDRILRV; listed as Homo sapiens) [compound 403]”, the Peptide exchange result is reported as ““++” (≥20% = ++)”.

Consider “405 (ALYDVFLEV; listed as Homo sapiens) [compound 405]”, for which the Peptide exchange entry is ““++” (≥20% = ++)”.

For “407 (YLMDLINFL; listed as Homo sapiens) [compound 407]”, the Peptide exchange entry is ““+++” (≥50 = +++)”.

On to “408 (VLDDSIYLV; listed as Homo sapiens) [compound 408]”, for which the Peptide exchange entry is ““++” (≥20% = ++)”.

Turning to “409 (LLDAMNYHL; listed as Homo sapiens) [compound 409]”, the Peptide exchange entry was ““++” (≥20% = ++)”.

With “412 (YLDDLNEGVYI; listed as Homo sapiens) [compound 412]”, the Peptide exchange entry is ““++” (≥20% = ++)”.

In the case of “426 (RLADKSVLV; listed as Homo sapiens) [compound 426]”, the Peptide exchange entry is on record as ““+++” (≥50 = +++)”.

For “427 (ALLPLSPYL; listed as Homo sapiens) [compound 427]”, the Peptide exchange entry was ““+++” (≥50 = +++)”.

Turning to “428 (KLGHTDILVGV; listed as Homo sapiens) [compound 428]”, the Peptide exchange entry is recorded as ““++” (≥20% = ++)”.

In the case of “429 (GLVNDLARV; listed as Homo sapiens) [compound 429]”, the Peptide exchange result is recorded as ““++” (≥20% = ++)”.

“430 (HLYSSIEHLTT; listed as Homo sapiens) [compound 430]”: the Peptide exchange result is on record as ““+++” (≥50 = +++)”.

Regarding “431 (SLVNVVPKL; listed as Homo sapiens) [compound 431]”, the Peptide exchange entry is reported as ““++” (≥20% = ++)”.

Take “432 (TLIEESAKV; listed as Homo sapiens) [compound 432]”: the Peptide exchange entry is ““++” (≥20% = ++)”.

Regarding “433 (AMLNEPWAV; listed as Homo sapiens) [compound 433]”, the Peptide exchange entry is reported as ““+++” (≥50 = +++)”.

As to “434 (KVSNSGITRV; listed as Homo sapiens) [compound 434]”, the Peptide exchange entry was ““++” (≥20% = ++)”.

In the case of “436 (HLAEVSAEV; listed as Homo sapiens) [compound 436]”, the Peptide exchange entry is given as ““+++” (≥50 = +++)”.
